# According to the supplement of paper PMC7125110:
# ± gives the standard error. For some of these results: Fewer inactive variants are shown than the library holds.
# B1: glmS ribozyme (parent)
# chain: AUAAAAGCGCCAGAACUACAGAAAUGUAGUUGACGAGGAGGAGGUUUAUCGAAUUUUCGGCGGAUGCCUCCAAA
# What was measured:
# Details in all cases: with glucosamine-6-phosphate
# [1] = variants of: B1; test: kcat; higher = faster cleavage; RNA array
# How it was run: (§1)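 Barcoded ribozyme variants, transcribed in situ by E. coli RNA polymerase on sequenced MiSeq chips, were followed via a hybridised Cy3 probe at 37 °C. Glucosamine-6-phosphate ranged from 40 μM to 10 mM in HEPES/KCl/Mg(OAc)2 buffer. kobs came from decay fits to per-tile medians, and kcat and KM from weighted Michaelis–Menten fits.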
# [2] = variants of: B1; test: KM; higher = weaker cofactor use; RNA array
# How it was run: as §1
# [3] = variants of: B1; test: self-cleavage kobs at 160 uM GlcN6P; higher = faster cleavage; RNA array
# How it was run: as §1
# [4] = variants of: B1; test: self-cleavage kobs at 640 uM GlcN6P; higher = faster cleavage; RNA array
# How it was run: as §1
# [5] = variants of: B1; test: self-cleavage kobs at 2500 uM GlcN6P; higher = faster cleavage; RNA array
# How it was run: as §1
# [6] = variants of: B1; test: self-cleavage kobs at 10000 uM GlcN6P; higher = faster cleavage; RNA array
# How it was run: as §1
# [7] = variants of: B1; test: self-cleavage kobs at 40 uM GlcN6P; higher = faster cleavage; RNA array
# How it was run: as §1
Variant,kcat [1],KM [2],self-cleavage kobs at 160 uM GlcN6P [3],self-cleavage kobs at 640 uM GlcN6P [4],self-cleavage kobs at 2500 uM GlcN6P [5],self-cleavage kobs at 10000 uM GlcN6P [6],self-cleavage kobs at 40 uM GlcN6P [7]
A14U U46A,0.000437 ± 0.0001 s⁻¹,2000 ± 930 µM,2.43e-05 ± 9.4e-06 s⁻¹,9.67e-05 ± 1.3e-05 s⁻¹,0.000343 ± 3.4e-05 s⁻¹,0.000323 ± 3.5e-05 s⁻¹,–
A14G G32C A53U,0.000218 ± 7.2e-05 s⁻¹,–,–,4.08e-05 ± 2e-05 s⁻¹,6.01e-05 ± 1.8e-05 s⁻¹,0.000144 ± 2.8e-05 s⁻¹,–
G13U U65A,0.000112 ± 6.4e-06 s⁻¹,1260 ± 270 µM,–,–,7.82e-05 ± 1.7e-05 s⁻¹,9.77e-05 ± 1.8e-05 s⁻¹,–
A14G A52C,4.48e-05 ± 2.1e-06 s⁻¹,3920 ± 400 µM,–,–,1.73e-05 ± 7.9e-06 s⁻¹,3.23e-05 ± 1.3e-05 s⁻¹,–
A14C G66U,0.000181 ± 3.7e-05 s⁻¹,–,–,8.12e-05 ± 1.4e-05 s⁻¹,9.62e-05 ± 2e-05 s⁻¹,0.000191 ± 2.6e-05 s⁻¹,–
A14U G59U,< 1e-05 s⁻¹,–,< 1e-05 s⁻¹,–,< 1e-05 s⁻¹,–,–
A14U G29C,1.25e-05 ± 3.3e-06 s⁻¹,–,–,–,–,–,–
A14U U30G,0.00494 ± 0.00089 s⁻¹,2220 ± 540 µM,0.000282 ± 3.6e-05 s⁻¹,0.000998 ± 0.0001 s⁻¹,0.0033 ± 0.00052 s⁻¹,0.00404 ± 0.00036 s⁻¹,0.000104 ± 8.8e-06 s⁻¹
A14U A15U,0.00245 ± 0.00036 s⁻¹,2240 ± 500 µM,0.000141 ± 1.6e-05 s⁻¹,0.000602 ± 7.4e-05 s⁻¹,0.00125 ± 0.00014 s⁻¹,0.00202 ± 0.00018 s⁻¹,5.71e-05 ± 7.8e-06 s⁻¹
A14G C58G,0.00036 ± 0.00013 s⁻¹,–,4.95e-05 ± 1.8e-05 s⁻¹,7.22e-05 ± 2.1e-05 s⁻¹,0.000115 ± 2.3e-05 s⁻¹,0.000276 ± 3.5e-05 s⁻¹,–
A14G C58A,0.00151 ± 0.00049 s⁻¹,4260 ± 2000 µM,6.76e-05 ± 3.4e-05 s⁻¹,0.000214 ± 2.3e-05 s⁻¹,0.000448 ± 6.1e-05 s⁻¹,0.0012 ± 0.00014 s⁻¹,2.97e-05 ± 1e-05 s⁻¹
A14G C58U,0.000263 ± 4.8e-05 s⁻¹,–,–,–,5.32e-05 ± 1.9e-05 s⁻¹,0.000129 ± 2.9e-05 s⁻¹,< 1e-05 s⁻¹
G13U U46G A52C C67U C70G,2.41e-05 ± 6.8e-06 s⁻¹,–,–,–,–,–,–
A14C G29C,0.00095 ± 0.00038 s⁻¹,–,–,6.24e-05 ± 1.5e-05 s⁻¹,0.000139 ± 2.5e-05 s⁻¹,0.000438 ± 6.2e-05 s⁻¹,–
A14C U45G,0.00127 ± 0.00013 s⁻¹,3410 ± 600 µM,6.63e-05 ± 1.5e-05 s⁻¹,0.000181 ± 2.6e-05 s⁻¹,0.000606 ± 9.4e-05 s⁻¹,0.000933 ± 9.1e-05 s⁻¹,–
A14G G35C,< 1e-05 s⁻¹,–,< 1e-05 s⁻¹,< 1e-05 s⁻¹,< 1e-05 s⁻¹,–,< 1e-05 s⁻¹

Variant,kcat [1],KM [2],self-cleavage kobs at 160 uM GlcN6P [3],self-cleavage kobs at 640 uM GlcN6P [4],self-cleavage kobs at 2500 uM GlcN6P [5],self-cleavage kobs at 10000 uM GlcN6P [6],self-cleavage kobs at 40 uM GlcN6P [7]
G13U U57C,4.31e-05 ± 6.8e-06 s⁻¹,–,–,–,3.41e-05 ± 1.3e-05 s⁻¹,3.63e-05 ± 1.8e-05 s⁻¹,–
A14G U55C,0.0632 ± 0.029 s⁻¹,–,0.00449 ± 0.00098 s⁻¹,0.0382 ± 0.012 s⁻¹,–,0.0522 ± 0.015 s⁻¹,0.00179 ± 0.00021 s⁻¹
A14G A53U,0.0349 ± 0.012 s⁻¹,1060 ± 450 µM,0.00482 ± 0.00076 s⁻¹,0.011 ± 0.0013 s⁻¹,0.0342 ± 0.015 s⁻¹,0.0446 ± 0.0086 s⁻¹,0.00142 ± 0.00015 s⁻¹
A14U U55G,0.00848 ± 0.0029 s⁻¹,2280 ± 1100 µM,0.000508 ± 8e-05 s⁻¹,0.00176 ± 0.00023 s⁻¹,0.0041 ± 0.00047 s⁻¹,0.0105 ± 0.0021 s⁻¹,0.000209 ± 3.1e-05 s⁻¹
A14U U55C,0.00666 ± 0.0014 s⁻¹,1760 ± 500 µM,0.000488 ± 8.3e-05 s⁻¹,0.00161 ± 0.00025 s⁻¹,0.00352 ± 0.00053 s⁻¹,0.0066 ± 0.001 s⁻¹,0.000181 ± 2.3e-05 s⁻¹
A14G U69G,0.000107 ± 2.2e-05 s⁻¹,–,5.73e-05 ± 1.7e-05 s⁻¹,0.000175 ± 3.5e-05 s⁻¹,0.000103 ± 2e-05 s⁻¹,0.000113 ± 1.8e-05 s⁻¹,8.24e-05 ± 1.9e-05 s⁻¹
A14G U31A U57A C71G,2.93e-05 ± 8.2e-06 s⁻¹,–,–,–,–,–,–
A14G U31A C67G,0.00052 ± 0.00021 s⁻¹,–,0.000163 ± 3.6e-05 s⁻¹,0.000237 ± 6e-05 s⁻¹,0.000368 ± 0.00011 s⁻¹,0.000966 ± 0.0003 s⁻¹,–
A14C A33U,3.55e-05 ± 2.4e-06 s⁻¹,994 ± 450 µM,–,–,–,3.21e-05 ± 7.6e-06 s⁻¹,–
A14G G32U,0.00512 ± 0.001 s⁻¹,5710 ± 1400 µM,0.000137 ± 1.8e-05 s⁻¹,0.000476 ± 5.1e-05 s⁻¹,0.00158 ± 0.00017 s⁻¹,0.00329 ± 0.0004 s⁻¹,4.82e-05 ± 7.9e-06 s⁻¹
A14G C68A,9.34e-05 ± 1.3e-05 s⁻¹,254 ± 120 µM,2.91e-05 ± 1.3e-05 s⁻¹,7.66e-05 ± 1.6e-05 s⁻¹,0.000105 ± 3.4e-05 s⁻¹,7.77e-05 ± 2.1e-05 s⁻¹,–
A14G C68G,0.000237 ± 2.5e-05 s⁻¹,590 ± 180 µM,4.57e-05 ± 1.1e-05 s⁻¹,0.000123 ± 1.6e-05 s⁻¹,0.000181 ± 2.1e-05 s⁻¹,0.000235 ± 2.4e-05 s⁻¹,3.33e-05 ± 1.1e-05 s⁻¹
A14U U47C,0.000442 ± 6.2e-05 s⁻¹,1430 ± 360 µM,4.9e-05 ± 8.6e-06 s⁻¹,0.000138 ± 1.3e-05 s⁻¹,0.000238 ± 3.2e-05 s⁻¹,0.000442 ± 5.2e-05 s⁻¹,–
A14G A33C,0.000125 ± 5.4e-06 s⁻¹,1470 ± 220 µM,–,3.41e-05 ± 1.4e-05 s⁻¹,8.25e-05 ± 1.2e-05 s⁻¹,0.000108 ± 1.2e-05 s⁻¹,–
A14G U56C,0.021 ± 0.0052 s⁻¹,3490 ± 1200 µM,0.000647 ± 0.00018 s⁻¹,0.0033 ± 0.00071 s⁻¹,0.0088 ± 0.0011 s⁻¹,0.0157 ± 0.0028 s⁻¹,0.000291 ± 4.2e-05 s⁻¹
